From patent US20170209564A1

Assays:
Conditions in all cases: remark: other sources report otherwise
11B4 = assay: ELISA, coated CR6261, P. pastoris medium
11H6 = assay: ELISA, coated CR6261, P. pastoris medium
27B10 = assay: ELISA, coated CR6261, P. pastoris medium
51G3 = assay: ELISA, coated CR6261, P. pastoris medium
53G10 = assay: ELISA, coated CR6261, P. pastoris medium
55G7 = assay: ELISA, coated CR6261, P. pastoris medium
63C3 = assay: ELISA, coated CR6261, P. pastoris medium
71A4 = assay: ELISA, coated CR6261, P. pastoris medium
71C4 [1] = assay: ELISA, coated CR6261, P. pastoris medium
79D5 = assay: ELISA, coated CR6261, P. pastoris medium
84D3 = assay: ELISA, coated CR6261, P. pastoris medium
86B3 = assay: ELISA, coated CR6261, P. pastoris medium
86G3 = assay: ELISA, coated CR6261, P. pastoris medium
88C5 = assay: ELISA, coated CR6261, P. pastoris medium
8A10 = assay: ELISA, coated CR6261, P. pastoris medium
90A9 = assay: ELISA, coated CR6261, P. pastoris medium
113E7 = assay: ELISA signal over HTRF expression signal, HEK293F
115A1 = assay: ELISA signal over HTRF expression signal, HEK293F
127H1 = assay: ELISA signal over HTRF expression signal, HEK293F
131B5 = assay: ELISA signal over HTRF expression signal, HEK293F
171E5 = assay: ELISA signal over HTRF expression signal, HEK293F
181H9 = assay: ELISA signal over HTRF expression signal, HEK293F
220C9 = assay: ELISA signal over HTRF expression signal, HEK293F
6E12 = assay: ELISA signal over HTRF expression signal, HEK293F
71C4 [2] = assay: ELISA signal over HTRF expression signal, HEK293F
71H2 = assay: ELISA signal over HTRF expression signal, HEK293F
74H9 = assay: ELISA signal over HTRF expression signal, HEK293F
7A7 = assay: ELISA signal over HTRF expression signal, HEK293F
86B4 = assay: ELISA signal over HTRF expression signal, HEK293F
91C4 = assay: ELISA signal over HTRF expression signal, HEK293F
[3] = molecular target: T1, H1-mini2-cluster1+5+6-GCN4 without leader sequence and with FLAG-thrombin-foldon-HIS; assay: ELISA, coated CR6261, HEK293F medium; average of the parental
[4] = molecular target: T1, H1-mini2-cluster1+5+6-GCN4 without …; assay: ELISA, coated CR6261, P. pastoris medium; average of the parental
[5] = molecular target: T1, H1-mini2-cluster1+5+6-GCN4 without …; assay: ELISA signal over HTRF expression signal, HEK293F; the reference itself
[6] = molecular target: T1, H1-mini2-cluster1+5+6-GCN4 without …; assay: ELISA signal over HTRF expression signal, HEK293F; average of the parental
s127H1 = assay: apparent Kd (Kd^app), purified polypeptide; method not stated
s55G7 = assay: as above
s6E12 = assay: as above
s74H9 = assay: as above
s86B4 = assay: as above
[7] = molecular target: T1, H1-mini2-cluster1+5+6-GCN4 without …; assay: ELISA signal over HTRF expression signal, P. pastoris; the reference itself

B1: CR6261 (antibody, V domains shown)
VH: EVQLVESGAEVKKPGSSVKVSCKASGGPFRSYAISWVRQAPGQGPEWMGGIIPIFGTTKYAPKFQGRVTITADDFAGTVYMELSSLRSEDTAMYYCAKHMGYQVRETMDVWGKGTTVTVSS
VL: QSVLTQPPSVSAAPGQKVTISCSGSSSNIGNDYVSWYQQLPGTAPKLLIYDNNKRPSGIPDRFSGSKSGTSATLGITGLQTGDEANYYCATWDRRPTAYVVFGGGTKLTVLG
Question: With B1 as the binder, how does the CR6261 binding signal (11B4) read?
Answer: 166000

Question: And the CR6261 binding signal (11H6)?
Answer: 427000

Question: And the CR6261 binding signal (27B10)?
Answer: 187000

Question: What about the CR6261 binding signal (51G3) of the same binder?
Answer: 460000

Question: And the CR6261 binding signal (53G10)?
Answer: 108000

Question: What about the CR6261 binding signal (55G7) of the same binder?
Answer: 616000

Question: What about the CR6261 binding signal (63C3) of the same binder?
Answer: 188000

Question: What about the CR6261 binding signal (71A4) of the same binder?
Answer: 1.05e+06

Question: What about the CR6261 binding signal (71C4 [1]) of the same binder?
Answer: 1.35e+06

Question: What about the CR6261 binding signal (79D5) of the same binder?
Answer: 703000

Question: What about the CR6261 binding signal (84D3) of the same binder?
Answer: 84400

Question: And the CR6261 binding signal (86B3)?
Answer: 901000

Question: What about the CR6261 binding signal (86G3) of the same binder?
Answer: 184000

Question: What about the CR6261 binding signal (88C5) of the same binder?
Answer: 471000

Question: And the CR6261 binding signal (8A10)?
Answer: 360000

Question: And the CR6261 binding signal (90A9)?
Answer: 414000

Question: What about the fold increase of ratio over parental SEQ ID NO: 6 (113E7) of the same binder?
Answer: 2.87

Question: What about the ratio (binding signal/HTRF signal) (113E7) of the same binder?
Answer: 49.9

Question: What about the fold increase of ratio over parental SEQ ID NO: 6 (115A1) of the same binder?
Answer: 3.14

Question: What about the ratio (binding signal/HTRF signal) (115A1) of the same binder?
Answer: 54.5

Question: What about the fold increase of ratio over parental SEQ ID NO: 6 (127H1) of the same binder?
Answer: 4.25

Question: What about the ratio (binding signal/HTRF signal) (127H1) of the same binder?
Answer: 73.8

Question: What about the fold increase of ratio over parental SEQ ID NO: 6 (131B5) of the same binder?
Answer: 2.36

Question: What about the ratio (binding signal/HTRF signal) (131B5) of the same binder?
Answer: 41

Question: And the fold increase of ratio over parental SEQ ID NO: 6 (171E5)?
Answer: 1.62

Question: What about the ratio (binding signal/HTRF signal) (171E5) of the same binder?
Answer: 28.1

Question: And the fold increase of ratio over parental SEQ ID NO: 6 (181H9)?
Answer: 2.11

Question: What about the ratio (binding signal/HTRF signal) (181H9) of the same binder?
Answer: 36.6

Question: What about the fold increase of ratio over parental SEQ ID NO: 6 (220C9) of the same binder?
Answer: 3

Question: And the ratio (binding signal/HTRF signal) (220C9)?
Answer: 52.1

Question: What about the fold increase of ratio over parental SEQ ID NO: 6 (6E12) of the same binder?
Answer: 2.85

Question: What about the ratio (binding signal/HTRF signal) (6E12) of the same binder?
Answer: 49.5

Question: What about the fold increase of ratio over parental SEQ ID NO: 6 (71C4 [2]) of the same binder?
Answer: 1.72

Question: What about the ratio (binding signal/HTRF signal) (71C4 [2]) of the same binder?
Answer: 29.9

Question: What about the fold increase of ratio over parental SEQ ID NO: 6 (71H2) of the same binder?
Answer: 3.61

Question: What about the ratio (binding signal/HTRF signal) (71H2) of the same binder?
Answer: 62.7

Question: And the fold increase of ratio over parental SEQ ID NO: 6 (74H9)?
Answer: 4.37

Question: What about the ratio (binding signal/HTRF signal) (74H9) of the same binder?
Answer: 75.8

Question: And the fold increase of ratio over parental SEQ ID NO: 6 (7A7)?
Answer: 1.47

Question: And the ratio (binding signal/HTRF signal) (7A7)?
Answer: 25.5

Question: And the fold increase of ratio over parental SEQ ID NO: 6 (86B4)?
Answer: 3.44

Question: And the ratio (binding signal/HTRF signal) (86B4)?
Answer: 59.6

Question: And the fold increase of ratio over parental SEQ ID NO: 6 (91C4)?
Answer: 1.98

Question: And the ratio (binding signal/HTRF signal) (91C4)?
Answer: 34.4

Question: And the CR6261 binding signal [3]?
Answer: 5.66e+06

Question: And the CR6261 binding signal [4]?
Answer: 238000

Question: What about the fold increase of ratio over parental SEQ ID NO: 6 [5] of the same binder?
Answer: 1

Question: What about the ratio (binding signal/HTRF signal) [6] of the same binder?
Answer: 17.4

Question: And the Kd (s127H1)?
Answer: 130 nM

Question: What about the Kd (s55G7) of the same binder?
Answer: 150 nM

Question: What about the Kd (s6E12) of the same binder?
Answer: 390 nM

Question: And the Kd (s74H9)?
Answer: 130 nM

Question: What about the Kd (s86B4) of the same binder?
Answer: 150 nM

Question: And the fold increase of ratio over parental SEQ ID NO: 6 [7]?
Answer: 1
